The target of assay [1] is T1, mouse transferrin receptor (mouse, UniProt Q62351 89-763, limits assumed).
T1 construct: also called TfR Mouse
In words: MST (Monolith NT.115), His-tag-dye-labelled protein, TfR titrated. How it is done: (§1) First, 100 μl of dye that specifically binds to a hexa-His tag (RED-tris-NTA 2nd Generation Dye) was prepared at a concentration of 50 nM, along with 100 μl of the produced protein at a concentration of 200 nM, followed by mixing the same and incubating at room temperature for 30 minutes. The incubated product was centrifuged at 13000 rpm for 10 minutes at 4° C. by a centrifuge, thus to separate the supernatant and obtain a dye-labeled protein.
(§2) Then, 25 μl of 9.65 μM transferrin receptor was added to the 1st PCR tube; 10 μl of PBS-T (PBS+0.5% tween 20) buffer was added to 2nd to 16th PCR tubes; 10 μl of transferrin in the 1st PCR tube was transferred to the 2nd PCR tube; and 10 μl was again transferred from the 2nd PCR tube to the 3rd PCR tube. Likewise, this procedure was continued up to the 16th tube thus to perform ½ dilution in a sequential order so that each of the 2nd to 16th PCR tubes becomes 20 μl.
(§3) Thereafter, 10 μl of the dye-labeled protein was added to each PCR tube, and the reaction was performed at room temperature for 1 hour.

Assay [2] has as its target T2, human transferrin receptor (human, UniProt P02786 89-760, limits assumed).
T2 construct: also called TfR Human
The assay is described as above. How it is done: as §1, §2, §3

Assay [3] deals with T3, transferrin receptor (TfR), species not stated.
T3 construct: also called the transferrin receptor
As to the kind of experiment: Microscale Thermophoresis (MST) with the transferrin receptor, Example 5; species of TfR not given on the sheet or in the legend (value coincides with the Mouse TfR row of Table 5).

T2 sequence (P02786 89-760 limits assumed): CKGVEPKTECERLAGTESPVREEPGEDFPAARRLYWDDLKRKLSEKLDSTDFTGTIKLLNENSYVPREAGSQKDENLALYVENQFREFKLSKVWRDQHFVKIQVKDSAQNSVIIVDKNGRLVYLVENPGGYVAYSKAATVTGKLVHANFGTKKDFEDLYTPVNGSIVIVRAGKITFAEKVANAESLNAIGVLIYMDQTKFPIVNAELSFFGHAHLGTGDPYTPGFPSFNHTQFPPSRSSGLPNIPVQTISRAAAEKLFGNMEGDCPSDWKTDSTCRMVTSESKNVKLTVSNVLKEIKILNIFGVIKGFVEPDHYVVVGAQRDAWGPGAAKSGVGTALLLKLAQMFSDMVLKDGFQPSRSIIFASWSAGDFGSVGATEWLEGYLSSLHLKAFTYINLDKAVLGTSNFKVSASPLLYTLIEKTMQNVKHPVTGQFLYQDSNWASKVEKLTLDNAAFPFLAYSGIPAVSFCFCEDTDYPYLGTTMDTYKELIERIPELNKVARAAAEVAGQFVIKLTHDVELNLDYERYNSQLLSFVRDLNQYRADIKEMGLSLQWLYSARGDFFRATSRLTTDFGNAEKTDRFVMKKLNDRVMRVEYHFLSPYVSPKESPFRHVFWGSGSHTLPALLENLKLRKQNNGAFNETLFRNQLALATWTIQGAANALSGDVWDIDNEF
T1 sequence (Q62351 89-763 limits assumed): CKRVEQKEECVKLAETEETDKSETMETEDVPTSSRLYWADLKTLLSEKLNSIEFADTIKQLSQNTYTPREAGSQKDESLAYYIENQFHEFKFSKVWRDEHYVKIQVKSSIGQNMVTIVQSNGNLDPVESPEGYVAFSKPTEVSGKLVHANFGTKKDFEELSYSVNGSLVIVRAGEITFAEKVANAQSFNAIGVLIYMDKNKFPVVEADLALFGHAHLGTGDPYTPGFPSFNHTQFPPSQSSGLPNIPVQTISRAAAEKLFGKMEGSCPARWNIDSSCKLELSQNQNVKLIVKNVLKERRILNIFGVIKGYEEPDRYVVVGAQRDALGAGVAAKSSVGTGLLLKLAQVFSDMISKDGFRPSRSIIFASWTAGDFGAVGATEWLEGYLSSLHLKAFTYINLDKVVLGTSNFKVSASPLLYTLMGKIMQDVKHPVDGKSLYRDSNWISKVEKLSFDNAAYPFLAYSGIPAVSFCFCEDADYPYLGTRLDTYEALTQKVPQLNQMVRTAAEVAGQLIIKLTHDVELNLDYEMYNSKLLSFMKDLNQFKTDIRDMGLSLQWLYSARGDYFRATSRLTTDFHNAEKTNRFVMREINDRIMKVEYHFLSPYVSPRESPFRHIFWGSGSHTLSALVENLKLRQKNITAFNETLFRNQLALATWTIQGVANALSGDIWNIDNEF
T3 sequence (P02786 whole entry): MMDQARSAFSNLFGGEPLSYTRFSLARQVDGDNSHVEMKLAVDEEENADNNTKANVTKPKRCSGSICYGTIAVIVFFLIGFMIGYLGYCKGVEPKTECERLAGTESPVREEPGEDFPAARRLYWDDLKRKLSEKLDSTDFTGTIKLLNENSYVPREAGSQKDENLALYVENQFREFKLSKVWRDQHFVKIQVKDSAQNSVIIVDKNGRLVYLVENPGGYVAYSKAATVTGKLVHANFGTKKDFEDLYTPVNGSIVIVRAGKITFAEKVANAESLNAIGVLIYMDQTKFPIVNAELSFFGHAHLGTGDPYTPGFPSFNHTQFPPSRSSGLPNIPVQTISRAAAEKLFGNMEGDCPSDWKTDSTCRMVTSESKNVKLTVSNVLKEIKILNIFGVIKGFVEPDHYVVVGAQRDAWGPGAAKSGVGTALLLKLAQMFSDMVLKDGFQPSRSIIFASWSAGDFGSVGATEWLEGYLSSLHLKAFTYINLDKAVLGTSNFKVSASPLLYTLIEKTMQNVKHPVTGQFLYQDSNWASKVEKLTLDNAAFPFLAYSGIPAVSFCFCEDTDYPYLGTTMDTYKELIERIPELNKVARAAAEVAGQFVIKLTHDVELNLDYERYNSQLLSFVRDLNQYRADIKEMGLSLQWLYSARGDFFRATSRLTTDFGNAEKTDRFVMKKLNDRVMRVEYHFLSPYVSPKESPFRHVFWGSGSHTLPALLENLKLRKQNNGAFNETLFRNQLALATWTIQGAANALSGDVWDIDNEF

B1: BC-gp100-huHF (other)
chain: HHHHHHMTTASTSQVRQNYHQDSEAAINRQINLELYASYVYLSMSYYFDRDDVALKNFAKYFLHQSHEEREHAEKLMKLQNQRGGRIFLQDIKKPDCDDKVPRNQDWLWESGLNAMECALHLEKNVNQSLLELHKLATDKNDPHLCDFIETHYLNEQVKAIKELGDHVTNLRKMGAPESGLAEYLFDKHTLGDSDNES
notes: also called gp100-huHF (BC loop); TSA insertion site BC, gp100
In general, Kd refers to the concentration at which binding is half-saturated. As for B1, the Kd came out at 48 nM in assay [1] and 14 nM in assay [2].

B2: BC-AH1-huHF (other)
chain: HHHHHHMTTASTSQVRQNYHQDSEAAINRQINLELYASYVYLSMSYYFDRDDVALKNFAKYFLHQSHEEREHAEKLMKLQNQRGGRIFLQDIKKPDCDDSPSYVYHQFWESGLNAMECALHLEKNVNQSLLELHKLATDKNDPHLCDFIETHYLNEQVKAIKELGDHVTNLRKMGAPESGLAEYLFDKHTLGDSDNES
notes: also called AH1-huHF (BC loop); TSA insertion site BC, AH1
Turning to B2, binding in assay [2] was put at a Kd of 107 nM.

B3: AB-gp100-huHF (other)
chain: HHHHHHMTTASTSQVRQNYHQDSEAAINRQINLELYASYVYLSMSYYFDRDDKVPRNQDWLVALKNFAKYFLHQSHEEREHAEKLMKLQNQRGGRIFLQDIKKPDCDDWESGLNAMECALHLEKNVNQSLLELHKLATDKNDPHLCDFIETHYLNEQVKAIKELGDHVTNLRKMGAPESGLAEYLFDKHTLGDSDNES
notes: also called gp100-huHF (AB loop); TSA insertion site AB, gp100
On to B3, for which the figures for the Kd in assay [1] and in assay [2] were 40.8 nM and 29.7 nM, respectively.

B4: AB-AH1-huHF (other)
chain: HHHHHHMTTASTSQVRQNYHQDSEAAINRQINLELYASYVYLSMSYYFDRDDSPSYVYHQFVALKNFAKYFLHQSHEEREHAEKLMKLQNQRGGRIFLQDIKKPDCDDWESGLNAMECALHLEKNVNQSLLELHKLATDKNDPHLCDFIETHYLNEQVKAIKELGDHVTNLRKMGAPESGLAEYLFDKHTLGDSDNES
notes: also called AH1-huHF (AB loop); TSA insertion site AB, AH1
With B4, in assay [2], the Kd is 10.9 nM.

B5: CD-gp100-huHF (other)
chain: HHHHHHMTTASTSQVRQNYHQDSEAAINRQINLELYASYVYLSMSYYFDRDDVALKNFAKYFLHQSHEEREHAEKLMKLQNQRGGRIFLQDIKKPDCDDWESGLNAMECALHLEKNVNQSLLELHKLATDKNDKVPRNQDWLPHLCDFIETHYLNEQVKAIKELGDHVTNLRKMGAPESGLAEYLFDKHTLGDSDNES
notes: also called CD-loop-gp100; huHF-CD-gp100
B5: the equilibrium dissociation constant (Kd) is 15.9 nM in assay [1] and 4.89 nM in assay [2].

B6: CD-AH1-huHF (other)
chain: HHHHHHMTTASTSQVRQNYHQDSEAAINRQINLELYASYVYLSMSYYFDRDDVALKNFAKYFLHQSHEEREHAEKLMKLQNQRGGRIFLQDIKKPDCDDWESGLNAMECALHLEKNVNQSLLELHKLATDKNDSPSYVYHQFPHLCDFIETHYLNEQVKAIKELGDHVTNLRKMGAPESGLAEYLFDKHTLGDSDNES
notes: also called huHF-CD loop-AH1; CD-loop-AH1
B6 yielded a Kd in assay [2] of 3.45 nM.

B7: NA-gp100-huHF (other)
chain: MHHHHHHTTASTSKVPRNQDWLQVRQNYHQDSEAAINRQINLELYASYVYLSMSYYFDRDDVALKNFAKYFLHQSHEEREHAEKLMKLQNQRGGRIFLQDIKKPDCDDWESGLNAMECALHLEKNVNQSLLELHKLATDKNDPHLCDFIETHYLNEQVKAIKELGDHVTNLRKMGAPESGLAEYLFDKHTLGDSDNES
modifications: One monomer is given; the particle is a self-assembled 24-mer. In the MST assay the His tag carried RED-tris-NTA dye non-covalently.
notes: also called gp100 fused between N-terminus and A helix; TSA insertion site NA, gp100
In assay [2], B7 returned a Kd of 152 nM.

B8: DE-AH1-huHF (other)
chain: HHHHHHMTTASTSQVRQNYHQDSEAAINRQINLELYASYVYLSMSYYFDRDDVALKNFAKYFLHQSHEEREHAEKLMKLQNQRGGRIFLQDIKKPDCDDWESGLNAMECALHLEKNVNQSLLELHKLATDKNDPHLCDFIETHYLNEQVKAIKELGDHVTNLRKMGAPESPSYVYHQFSGLAEYLFDKHTLGDSDNES
notes: also called AH1-huHF (DE loop); TSA insertion site DE, AH1
In turn, B8 came in with a Kd in assay [2] of 6.11 nM. Against the preceding molecule, the Kd is about 25-fold lower.

B9: EC-gp100-huHF (other)
chain: MHHHHHHEFTTASTSQVRQNYHQDSEAAINRQINLELYASYVYLSMSYYFDRDDVALKNFAKYFLHQSHEEREHAEKLMKLQNQRGGRIFLQDIKKPDCDDWESGLNAMECALHLEKNVNQSLLELHKLATDKNDPHLCDFIETHYLNEQVKAIKELGDHVTNLRKMGAPESGLAEYLFDKHTLGDSKVPRNQDWLDNES
modifications: One monomer is given; the particle is a self-assembled 24-mer. In the MST assay the His tag carried RED-tris-NTA dye non-covalently.
notes: also called gp100 fused between E helix and C-terminus; TSA insertion site EC, gp100
With B9, the Kd in assay [2] was 5.68 nM.

B10: DE-gp100-huHF (other)
chain: MHHHHHHLETTASTSQVRQNYHQDSEAAINRQINLELYASYVYLSMSYYFDRDDVALKNFAKYFLHQSHEEREHAEKLMKLQNQRGGRIFLQDIKKPDCDDWESGLNAMECALHLEKNVNQSLLELHKLATDKNDPHLCDFIETHYLNEQVKAIKELGDHVTNLRKMGAPEGSKVPRNQDWLEFSGLAEYLFDKHTLGDSDNES
modifications: One monomer is given; the particle is a self-assembled 24-mer. In the MST assay the His tag carried RED-tris-NTA dye non-covalently.
notes: also called huHF-DE-gp100; gp100-huHF (DE loop)
Take B10: the Kd in assay [3] came out at 30.5 nM; in assay [1], 30.5 nM; in assay [2], 9.78 nM.

The record behind these values is US20240148898A1 (CELLEMEDY, published 2024).
